Results published in patent US20150232510A1.

Columns and labels:
[1] = target: Recombinant Human DPPIV/CD26 (R&D Systems, Inc.) (human) (UniProt P27487); assay: cell-based or functional assay
[2] = target: Angiotensin Converting Enzyme, from rabbit lung (SIGMA) (rabbit) (UniProt P12822); assay: cell-based or functional assay
Sequence of UniProt P12822 (P12822 34-1310 limits assumed): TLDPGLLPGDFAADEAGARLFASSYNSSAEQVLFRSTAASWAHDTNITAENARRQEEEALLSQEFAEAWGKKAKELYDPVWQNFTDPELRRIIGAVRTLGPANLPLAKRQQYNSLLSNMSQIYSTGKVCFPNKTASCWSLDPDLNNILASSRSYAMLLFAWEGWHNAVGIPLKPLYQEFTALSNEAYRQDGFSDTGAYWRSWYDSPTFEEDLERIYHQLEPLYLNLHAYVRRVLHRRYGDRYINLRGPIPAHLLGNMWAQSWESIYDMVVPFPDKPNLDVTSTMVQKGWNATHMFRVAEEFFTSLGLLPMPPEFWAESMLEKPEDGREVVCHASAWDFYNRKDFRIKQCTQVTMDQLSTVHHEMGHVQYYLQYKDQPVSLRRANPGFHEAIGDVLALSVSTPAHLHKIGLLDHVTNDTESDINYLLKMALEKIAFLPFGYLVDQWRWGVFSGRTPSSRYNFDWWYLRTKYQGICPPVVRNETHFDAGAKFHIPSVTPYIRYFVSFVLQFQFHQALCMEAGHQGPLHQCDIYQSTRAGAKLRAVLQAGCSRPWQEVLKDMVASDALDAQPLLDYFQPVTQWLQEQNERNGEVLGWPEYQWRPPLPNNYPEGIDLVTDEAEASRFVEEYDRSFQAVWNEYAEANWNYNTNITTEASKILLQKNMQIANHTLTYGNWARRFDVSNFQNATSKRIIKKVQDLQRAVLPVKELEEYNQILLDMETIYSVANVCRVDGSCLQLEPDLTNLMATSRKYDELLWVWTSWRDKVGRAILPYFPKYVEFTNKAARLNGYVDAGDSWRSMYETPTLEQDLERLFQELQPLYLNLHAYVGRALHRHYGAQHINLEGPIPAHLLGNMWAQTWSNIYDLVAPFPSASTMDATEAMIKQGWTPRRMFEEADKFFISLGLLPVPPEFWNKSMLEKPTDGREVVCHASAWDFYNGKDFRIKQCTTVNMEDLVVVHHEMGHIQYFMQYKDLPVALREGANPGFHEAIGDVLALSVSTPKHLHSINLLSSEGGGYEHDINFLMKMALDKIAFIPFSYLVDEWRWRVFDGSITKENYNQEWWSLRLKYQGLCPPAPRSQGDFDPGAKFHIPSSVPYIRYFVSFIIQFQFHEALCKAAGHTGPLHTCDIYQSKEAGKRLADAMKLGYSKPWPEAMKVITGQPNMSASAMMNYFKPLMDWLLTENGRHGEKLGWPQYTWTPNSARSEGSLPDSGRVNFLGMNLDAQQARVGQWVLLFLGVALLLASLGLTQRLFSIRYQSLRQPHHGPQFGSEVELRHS

Sequence of UniProt P27487 (P27487 29-766 limits assumed): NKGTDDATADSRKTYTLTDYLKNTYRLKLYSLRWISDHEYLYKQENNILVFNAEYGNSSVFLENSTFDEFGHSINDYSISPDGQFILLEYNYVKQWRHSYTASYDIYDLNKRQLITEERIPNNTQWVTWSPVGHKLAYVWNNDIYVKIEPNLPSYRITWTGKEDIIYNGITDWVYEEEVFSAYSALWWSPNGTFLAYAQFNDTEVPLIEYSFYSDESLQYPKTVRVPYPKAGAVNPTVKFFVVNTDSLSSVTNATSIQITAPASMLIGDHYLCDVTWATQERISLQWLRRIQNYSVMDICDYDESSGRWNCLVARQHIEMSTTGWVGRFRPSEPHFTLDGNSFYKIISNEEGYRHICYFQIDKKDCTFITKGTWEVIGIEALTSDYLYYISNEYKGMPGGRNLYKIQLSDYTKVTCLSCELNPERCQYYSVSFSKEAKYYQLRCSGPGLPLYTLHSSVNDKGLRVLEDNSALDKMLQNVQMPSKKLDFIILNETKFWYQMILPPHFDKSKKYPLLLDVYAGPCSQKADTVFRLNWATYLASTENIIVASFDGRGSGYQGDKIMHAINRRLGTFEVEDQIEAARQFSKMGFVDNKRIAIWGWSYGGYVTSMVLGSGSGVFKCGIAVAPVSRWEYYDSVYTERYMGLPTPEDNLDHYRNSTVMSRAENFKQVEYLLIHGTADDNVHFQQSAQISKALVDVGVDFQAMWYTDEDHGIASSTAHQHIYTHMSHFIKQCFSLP

Substance | DPP-4 inhibiting activity IC50(µg/ml) [1] [µg/mL] | ACE inhibiting activity, 50% inhibition concentration [2] [µg/mL] | concentration for 50% inhibition of the enzymatic activity (dipeptidyl peptidase-IV inhibiting ability of HPLC Fraction 2) [1] [µg/mL]
Val-Pro-Ser (peptide) | 5.17 |  | 
Val-Pro-Lys (peptide) | 10.4 | 132 | 
Val-Pro-Gly (peptide) | 3.4 |  | 
Val-Pro-Val (peptide) | 1 |  | 
Val-Pro-Tyr (peptide) | 7.15 |  | 
LY (peptide) | 486 |  | 
Val-Pro-Pro (peptide) | > 2000 |  | 
Val-Pro-Gln (peptide) | 2.6 |  | 
Val-Pro-Asn (peptide) | 5.7 |  | 
Val-Pro-Ala (peptide) | 1.9 | 24.8 | 2
Ile-Pro-Pro (peptide) | 1340 |  | 
